Experimental data reported in patent publication US20050267061.

How the values were obtained:
[1] = system: BVO 13A (synthetic)
[2] = system: MX1E (synthetic)
[3] = system: VOP 29A-3 (synthetic)
[4] = system: USX 3A (synthetic)
[5] = system: VOP 35A-10 (synthetic)
[6] = system: VOP 30A-4 (synthetic)
[7] = system: HP38 4A (synthetic)
[8] = system: VEGF 1B (synthetic)
[9] = system: VOP 28A-2 (synthetic)
[10] = system: VOP 32A-6 (synthetic)
[11] = system: VOP 32B-7 (synthetic)
[12] = system: HUM 19A (synthetic)
[13] = system: MTS 5A (synthetic)

## ATGGACGGG (double strand) [BVO 13A / MX1E target]
[1]
  Kd: < 0.02 nM
[2]
  Kd: 3.4 nM

## GAGGCTTGG (double strand) [VOP 29A-3 target]
[3]
  Kd: < 0.02 nM

## GCCGGGGAG (double strand) [USX 3A target]
[4]
  Kd: 0.06 nM

## GCTGGAGCA (double strand) [VOP 35A-10 target]
[5]
  Kd: < 0.02 nM

## GCTGGGGGC (double strand) [VOP 30A-4 target]
[6]
  Kd: < 0.02 nM

## GGDTGGGGG (double strand) [HP38 4A target]
[7]
  Kd: 0.75 nM

## GGGGAGGAT (double strand) [VEGF 1B target]
[8]
  Kd: 2 nM

## GGGGGCGCT (double strand) [VOP 28A-2 target]
[9]
  Kd: < 0.02 nM

## GGGGGTGAC (double strand) [VOP 32 target]
[10]
  Kd: < 0.02 nM
[11]
  Kd: < 0.02 nM

## TGGGCAGAC (double strand) [HUM 19A target]
[12]
  Kd: 0.02 nM

## TGGGGGTGG (double strand) [MTS 5A target]
[13]
  Kd: 0.07 nM
